These results are taken from patent US20230203172A1 (SHANGHAI MABGEEK BIOTECH, published 2023).

For one assay, the target named is T1, hIL-4R alpha-ECD-Flag (human, UniProt P24394 26-232).
T1 construct: range 26-232; Analyte of the Biacore experiment
The assay is described as follows: SPR, Biacore T200, antibody captured on Protein-A chip, hIL-4R alpha-ECD-Flag as analyte. As for the experimental part:
The affinity of six purified humanized antibodies was detected by Biacore T200 (GE healthcare), with the reference antibody Dupilumab as a control. The specific experimental method was as follows: a Protein-A CMS sensor chip (GE healthcare) was used, with FC1 (Flow cell 1) as a reference channel, and FC2 (Flow cell 2) as a sample channel. Humanized antibodies or control antibody were captured in the FC2 channel, and then hIL-4R alpha-ECD-Flag at different concentrations was injected. Cycling conditions were as follows: an analyte was injected into all channels of FCs at 50 μl/min for 4 min, with a dissociation time of 20 min, and 6M guanidine hydrochloride (Sinopharm Chemical Reagent Co., Ltd.) was injected at a rate of 10 μl/min for 30 s for surface regeneration. Then, signal differences and affinity for interaction between captured antibodies and non-captured antibodies were calculated by Biacore T200 Evaluation Software Ver 1.0.
In general terms: SPR reads the build-up and loss of mass on a sensor chip optically.

A further assay concerns the target T2, hIL-4R alpha-ECD-Fc (human, UniProt P24394 26-232).
T2 construct: range 26-232; hFc at the C-terminus of the ECD; also called hIL4R alpha-ECD-hFc; hIL-4R alpha-Fc antigen
Description: ELISA, plate coated with 1 ug/ml hIL-4R alpha-ECD-Fc. As for the experimental part: The titer was tested by ELISA: an ELISA plate was coated with the hIL-4R alpha ECD-Fc antigen at a concentration of 1 μg/ml, 100 μl per well, and coated overnight at 4° C. The plates were washed twice with PBST (PBS containing 0.5% Tween-20) and then pat-dried. Each well was blocked with 200 μl of coating solution containing 1% BSA, blocked at room temperature for 4 h, pat-dried, and stored in a refrigerator at −20° C. for later use. During testing, 100 μl of mouse serum at different concentrations was added to each well of the ELISA plate, with two replicate wells, for incubation at room temperature for 1.5 h. The wells were washed with PBST for 3 times and then pat-dried. Then 100 μl of rabbit anti-mouse IgG labeled with HRP diluted with PBST by 1:10000 (purchased from Sigma) was added and the plates were incubated at room temperature for 1 h. The wells were washed with PBST for 3 times and then pat-dried. Then 100 μl of chromogenic solution was added to each well (an ELISA chromogenic solution A was mixed with a chromogenic solution B at a volume ratio of 1:1 before use) for a chromogenic reaction, and then 100 μl of 2M H2SO4 stopping solution was added to each well to terminate the reaction. The OD value of each well was immediately measured at 450 nm with a microplate reader (Molecular Device).
Optimized murine anti-hIL-4R alpha monoclonal antibodies were purified by a ProteinG affinity chromatography column and quantified by BCA. The EC50 of anti-hIL-4R alpha monoclonal antibodies binding to hIL-4R alpha was tested by ELISA. The testing method is as described in Example 3. An ELISA plate was coated with 1 μg/ml of hIL-4R alpha-ECD-Fc antigen, and then murine anti-hIL-4R alpha monoclonal antibodies at different concentrations were added for testing.

Assay [1] has as its target human IL-4R alpha on cells (TF-1 cells; human peripheral blood mononuclear cells) (human, UniProt P24394 26-825). Description: cell-based or functional assay.

B1: Dupilumab (antibody, V domains shown)
VH: EVQLVESGGGLEQPGGSLRLSCAGSGFTFRDYAMTWVRQAPGKGLEWVSSISGSGGNTYYADSVKGRFTISRDNSKNTLYLQMNSLRAEDTAVYYCAKDRLSITIRPRYYGLDVWGQGTTVTVSS
VL: DIVMTQSPLSLPVTPGEPASISCRSSQSLLYSIGYNYLDWYLQKSGQSPQLLIYLGSNRASGVPDRFSGSGSGTDFTLKISRVEAEDVGFYYCMQALQTPYTFGQGTKLEIKR
The Kd is a measure of binding affinity in units of concentration. Lower therefore signals a tighter complex. One may read the koff as the first-order rate constant of dissociation. Read a high koff as a short-lived complex. What is called kon is a measure of how fast the partners come together. A higher kon goes with faster complex formation. In the assay with hIL-4R alpha-ECD-Flag, B1 returned a dissociation constant (Kd) of 0.403 nM, an off-rate (koff) of 0.00018 s⁻¹ and a kon of 446000 M⁻¹ s⁻¹.

B2: murine anti-hIL-4R alpha monoclonal antibody 29 (antibody, V domains shown)
VH: EVQLVESGGGLVKPGGSLKLSCAASGFTFSDYGMHWVRQAPEKGLEWVAYINSGSSKIYHADTVKGRFTISRDNAKNTLFLQMTSLRSEDTAMYYCARFPTVVAARYPMDYWGQGTSVTVSS
VL: DIQMTQTPSSLSASLGDRVTISCRASQDISNYLNWYQQKPDGTVKLLIYFTSRLHSGVPSRFSGGGSGTDYSLTISNLEQEDIATYFCQQGNTLPYTFGGGTKLEIK
notes: Mouse hybridoma antibody purified on ProteinG
Usually EC50 stands for the concentration at which the effect is half-maximal. The low end stands for higher potency in that assay, the high end for lower potency in that assay. In the case of B2, the midpoint of the response with hIL-4R alpha-ECD-Fc, the EC50, lay at 0.0076 µg/mL. The “IC50 (ng/ml), inhibition of IL-4-induced TF-1 proliferation” value (shortened to “IC50 (ng/ml), inhibition”) in assay [1] worked out at 65.3 ng/mL.

B3: murine anti-hIL-4R alpha monoclonal antibody 120 (antibody, V domains shown)
VH: EVQLVESGGGLVKPGGSLKLSCAASGFTFSDYGMHWVRQAPEKGLEWVAYISSGSTTIYYADTVKGRFTISRDNGKNTLFLQMTSLRSEDTAMYYCARISTVVAKRYAMDYWGQGTSVTVSS
VL: DIQMTQTASSLSASLGDRVTISCRASQDISNYLNWYQQKPDGTVKLLIYYTSRLHSGVPSRFSGSGSGTDYSLTISNLEQEDIATYFCQQINALPLTFGAGTKLELK
notes: as for B2
Molecule B3 had a concentration giving a half-maximal response (EC50) in the assay with hIL-4R alpha-ECD-Fc of 0.01 µg/mL. Further, the “IC50 (ng/ml), inhibition” value in assay [1] is 59.7 ng/mL.

B4: murine anti-hIL-4R alpha monoclonal antibody 136 (antibody, V domains shown)
VH: EVQLVESGGGLVKPGGSLKLSCAASGFTFSDYGMHWVRQAPEKGLEWVAYISSGSTTIYYADTVKGRFTISRDNGKNTLFLQMTSLRSEDTAMYYCARISTVVAKRYAMDYWGQGTSVTVSS
VL: DIQMTQTASSLSASLGDRVTISCRASQDISNYLNWYQQKPDGTVKLLIYYTSRLHSGVPSRFSGSGSGTDYSLTISNLEQEDIATYFCQQINALPLTFGAGTKLELK
notes: as for B2
In the case of B4, the EC50 with hIL-4R alpha-ECD-Fc came out at 0.0113 µg/mL. The “IC50 (ng/ml), inhibition” value in assay [1] was determined as 49.6 ng/mL.

B5: murine anti-hIL-4R alpha monoclonal antibody 131 (antibody, V domains shown)
VH: EVQLVESGGGLVKPGGSLKLSCAASGFTFSDYGMHWVRQAPEKGLEWVAYISSGSSTIYYADTVKGRFTISRDNAKNTLFLQMTSLRSEDTAMYYCARISTVVAKRYAMDYWGQGTSVTVSS
VL: DIQMTQTASSLSASLGDRVTISCRASQDISNYLNWYQQKPDGTVKLLIYYTSRLHSGVPSRFSGSGSGTDYSLTISNLEQEDIATYFCQEVNMLPLTFGAGTKLELK
notes: as for B2
Consider B5, for which the EC50 with hIL-4R alpha-ECD-Fc is 0.0138 µg/mL. In addition, in assay [1], the “IC50 (ng/ml), inhibition” value was determined as 47.1 ng/mL.

B6: humanized anti-hIL-4R alpha monoclonal antibody 228-Hu (antibody, human IgG4 S228P, kappa, V domains shown)
VH: QVQLVQSGAEVKKPGASVKVSCKASGYTFTDYNMDWVRQAPGQNLEWIGNINPNNGGTFYNQKFKGRATLTVDKSASTAYMELSSLRSEDTAVYYCARGGLRRRGFMDYWGQGTLVTVSS
VL: EIVLTQSPATLSLSPGERATLSCRASSSVIYIHWYQQKPGQSPRPWIYAASNLASGVPARFSGSGSGTDYTLTISRLEPEDFAVYYCQQWSVNPPTFGQGTKLEIKR
notes: Humanized, human IgG4 constant region; expressed in HEK293, purified on ProteinA
In the assay with hIL-4R alpha-ECD-Flag, B6 displayed a Kd of 0.912 nM, a koff of 0.000658 s⁻¹ and an association rate constant (kon) of 721000 M⁻¹ s⁻¹.

B7: murine anti-hIL-4R alpha monoclonal antibody 81 (antibody, V domains shown)
VH: DVQLQQSGPELLKPGASVKIPCQASGYTFTDYNMDWVKQSHGKNLEWIGNINPNNGGTFYNQKFKGKATLTVDKSSSTAYMELRSLTSEDTAVYYCGRGGLRRRGFMDYWGQGTSVTVSS
VL: QIVLSQSPAILSASPGEKVTMTCRASSSVIYIHWYQQKPGSSPKPWIYAASNLASGVPARFSGSGSGTSYSLTISRVEAEDAATYYCQQWSVNPPTFGGGTKLEIK
notes: as for B2
On to B7, for which, in the assay with hIL-4R alpha-ECD-Fc, the EC50 was found to be 0.0096 µg/mL. The “IC50 (ng/ml), inhibition” value in assay [1] worked out at 24.6 ng/mL.

B8: murine anti-hIL-4R alpha monoclonal antibody 236 (antibody, V domains shown)
VH: EVQLQQSGPELVKPGASVKIPCKASGYTFTDYNVDWVKQSHGQSLDWIGTINPNNGGILSNQKFKGKATLTVDTSSSTAYMELRSLTSEDTAVYYCGRGGLRRRGFMDYWGQGTSVTVSS
VL: QIVLSQSPAILSASPGEKVTMTCRASSSVIYIHWYYQKAGSSPKPWIYAASNLPSGVPARFSGSGSGTSYSLTISRVEAEDAATYYCQQWSSNPPTFGGGTKLEIK
notes: as for B2
B8: the concentration for a half-maximal effect (EC50) with hIL-4R alpha-ECD-Fc came out at 0.0115 µg/mL. In assay [1], the “IC50 (ng/ml), inhibition” value is 22.4 ng/mL.

B9: murine anti-hIL-4R alpha monoclonal antibody 228 (antibody, V domains shown)
VH: DVQLQQSGPELLKPGASVKIPCQASGYTFTDYNMDWVKQSHGKNLEWIGNINPNNGGTFYNQKFKGKATLTVDKSSSTAYMELRSLTSEDTAVYYCGRGGLRRRGFMDYWGQGTSVTVSS
VL: QIVLSQSPAILSASPGEKVTMTCRASSSVIYIHWYQQKPGSSPKPWIYAASNLASGVPARFSGSGSGTSYSLTISRVEAEDAATYYCQQWSVNPPTFGGGTKLEIK
notes: as for B2
Turning to B9, in the assay with hIL-4R alpha-ECD-Fc, the EC50 turned out to be 0.0131 µg/mL. For the same molecule, the “IC50 (ng/ml), inhibition” value in assay [1] stood at 34.2 ng/mL.

B10: murine anti-hIL-4R alpha monoclonal antibody 55 (antibody, V domains shown)
VH: DVQLQQSGPELLKPGASVKIPCQASGYTFTDYNMDWVKQSHGKNLEWIGNINPNNGGTFYNQKFKGKATLTVDKSSSTAYMELRSLTSEDTAVYYCGRGGLRRRGFMDYWGQGTSVTVSS
VL: QIVLSQSPAILSASPGEKVTMTCRASSSVIYIHWYQQKPGSSPKPWIYAASNLASGVPVRFSGSGSGTSYSLTISRVEAEDAATYYCQQWSVNPPTFGGGTKLEIK
notes: as for B2
In turn, B10 displayed a half-maximal effective concentration (EC50) in the assay with hIL-4R alpha-ECD-Fc of 0.0089 µg/mL. For the same molecule, the “IC50 (ng/ml), inhibition” value in assay [1] was determined as 19 ng/mL.

B11: murine anti-hIL-4R alpha monoclonal antibody 84 (antibody, V domains shown)
VH: DVQLQQSGRELLKRGASVKIPCQASGYTFTDYNMDWVKQSHGKNLEWIGNINPNNGGTFYNQKFKGKATLTVDKSSSTAYMELRSLTSEDTAVYYCGRGGLRRRGFMDYWGQGTSVTVSS
VL: QIVLSQSPAILSASPGEKVTMTCRASSSVIYIHWYQQKPGSSPKPWIYAASNLASGVPARFSGSGSGTSYSLTISRVEAEDAATYYCQQWSVNPPTFGGGTKLEIK
notes: as for B2
Consider B11, for which the midpoint of the response with hIL-4R alpha-ECD-Fc, the EC50, lay at 0.0122 µg/mL. Besides, in assay [1], the “IC50 (ng/ml), inhibition” value was 31.3 ng/mL.

B12: murine anti-hIL-4R alpha monoclonal antibody 88 (antibody, V domains shown)
VH: DVQLQQSGPELLKPGASVKIPCQASGYTFTDYNMDWVKQSHGKNLEWIGTINPNNGGTFYNQNFKGKATLTVDKSSSTACMELRSLTSDDTAVYYCGRGGLRRRGFMDYWGQGTSVTVSS
VL: QIVLSQSPAILSASPGEKVTMTCRASSSVIYIHWYQQKPGSSPKPWIYAASNLASGVPARFSGSGSGTSYSLTISRVEAEDAATYYCQQWSVNPPTFGGGTKLEIK
notes: as for B2
As for B12, the EC50 with hIL-4R alpha-ECD-Fc came out at 0.0091 µg/mL. The “IC50 (ng/ml), inhibition” value in assay [1] is 67.2 ng/mL.

B13: murine anti-hIL-4R alpha monoclonal antibody 100 (antibody, V domains shown)
VH: DVQLQQSGPELLKPGASVKIPCQASGYTFTDYNMDWVKQSHGKNLEWIGNINPNNGGTFYNQKFKGKATLTVDKSSSTAYMELRSLTSEDTAVYYCGRGGLRRRGFLDYWGQGTSVTVSS
VL: QIVLSQSPAILSASPGEKVTMTCRASSSVIYIHWYQQKPGSSPKPWIYAVSNLASGVPVRFSGSGSGTSYSLTISRVEAEDAATYYCQQWSVNPPTFGGGTKLEIK
notes: as for B2
In the assay with hIL-4R alpha-ECD-Fc, B13 displayed a concentration giving a half-maximal response (EC50) of 0.012 µg/mL. For the same molecule, in assay [1], the “IC50 (ng/ml), inhibition” value was determined as 53.7 ng/mL.
